Test results published in patent publication US20230265211A1 (published 2023).

T1: recombinant human PS (rhPS) (human, UniProt P07225 42-676)
T1 sequence (looked up): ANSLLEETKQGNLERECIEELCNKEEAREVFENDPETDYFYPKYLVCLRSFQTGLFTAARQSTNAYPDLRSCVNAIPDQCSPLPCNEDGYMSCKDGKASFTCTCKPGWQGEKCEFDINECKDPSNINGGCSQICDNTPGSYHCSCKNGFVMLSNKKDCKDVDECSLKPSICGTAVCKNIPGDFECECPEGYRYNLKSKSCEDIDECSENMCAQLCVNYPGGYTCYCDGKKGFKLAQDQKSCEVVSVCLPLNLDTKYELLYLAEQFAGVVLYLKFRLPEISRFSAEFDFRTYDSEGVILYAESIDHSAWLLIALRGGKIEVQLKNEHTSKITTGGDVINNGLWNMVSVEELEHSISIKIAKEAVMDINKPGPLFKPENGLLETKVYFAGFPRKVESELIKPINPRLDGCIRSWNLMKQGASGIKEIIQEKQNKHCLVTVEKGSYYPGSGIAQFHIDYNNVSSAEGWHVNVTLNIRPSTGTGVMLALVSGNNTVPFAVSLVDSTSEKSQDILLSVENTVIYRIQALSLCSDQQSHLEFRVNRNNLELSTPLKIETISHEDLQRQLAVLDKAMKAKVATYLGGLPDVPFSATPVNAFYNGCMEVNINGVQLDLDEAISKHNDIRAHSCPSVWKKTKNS

T2: recombinant murine PS (rmPS) (murine, UniProt Q08761 42-675)
T2 construct: also called recombinant murine protein S
T2 sequence (looked up): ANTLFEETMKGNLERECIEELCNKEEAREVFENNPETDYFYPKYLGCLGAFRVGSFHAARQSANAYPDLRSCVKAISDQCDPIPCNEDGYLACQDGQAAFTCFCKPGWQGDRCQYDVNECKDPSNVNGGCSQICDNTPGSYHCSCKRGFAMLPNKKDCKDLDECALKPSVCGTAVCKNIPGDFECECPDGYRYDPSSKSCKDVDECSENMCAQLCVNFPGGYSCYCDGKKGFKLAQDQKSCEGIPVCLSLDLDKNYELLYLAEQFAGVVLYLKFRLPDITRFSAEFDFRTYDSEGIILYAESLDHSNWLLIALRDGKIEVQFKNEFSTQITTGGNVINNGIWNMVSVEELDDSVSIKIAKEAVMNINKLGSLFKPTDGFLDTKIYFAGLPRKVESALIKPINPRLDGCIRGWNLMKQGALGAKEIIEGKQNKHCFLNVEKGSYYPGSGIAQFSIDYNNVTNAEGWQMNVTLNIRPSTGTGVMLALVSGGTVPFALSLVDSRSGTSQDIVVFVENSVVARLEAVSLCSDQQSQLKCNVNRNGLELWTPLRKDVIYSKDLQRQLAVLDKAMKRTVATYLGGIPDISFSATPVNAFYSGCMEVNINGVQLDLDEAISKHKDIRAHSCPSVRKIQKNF

T3: recombinant human Gas6 (rhGas6) (human, UniProt Q14393 49-678, limits assumed)
T3 sequence (looked up): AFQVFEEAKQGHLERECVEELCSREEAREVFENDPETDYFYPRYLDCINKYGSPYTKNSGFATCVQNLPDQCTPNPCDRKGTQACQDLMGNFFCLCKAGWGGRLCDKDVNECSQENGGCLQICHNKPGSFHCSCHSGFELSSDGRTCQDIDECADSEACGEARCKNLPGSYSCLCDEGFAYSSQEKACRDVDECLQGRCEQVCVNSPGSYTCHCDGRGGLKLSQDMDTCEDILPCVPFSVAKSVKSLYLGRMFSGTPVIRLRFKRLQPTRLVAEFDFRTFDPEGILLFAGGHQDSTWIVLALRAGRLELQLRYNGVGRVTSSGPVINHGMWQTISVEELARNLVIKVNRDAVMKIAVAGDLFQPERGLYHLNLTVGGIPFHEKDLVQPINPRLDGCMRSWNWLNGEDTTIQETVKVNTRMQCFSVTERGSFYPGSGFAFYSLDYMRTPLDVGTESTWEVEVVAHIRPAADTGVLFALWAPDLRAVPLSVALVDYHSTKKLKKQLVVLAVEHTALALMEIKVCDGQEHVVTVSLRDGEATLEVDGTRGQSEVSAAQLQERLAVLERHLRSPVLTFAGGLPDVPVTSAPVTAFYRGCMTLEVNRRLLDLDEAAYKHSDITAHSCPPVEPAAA

B1: PS003biv (VHH)
chain: QVQLQESGGGLVQAGGSLRLSCAASGRTFSSYAMGWVRQAPGKEREFVAAISYNGGRTNYADSVKGRFTISRDNAKNTGYLQMNSLKPEDTAVYYCAANPRMWGSVDFRSWGQGTQVTVSSGGGSGGGSGGGSGGGSQVQLQESGGGLVQAGGSLRLSCAASGRTFSSYAMGWVRQAPGKEREFVAAISYNGGRTNYADSVKGRFTISRDNAKNTGYLQMNSLKPEDTAVYYCAANPRMWGSVDFRSWGQGTQVTVSS
notes: also called bivalent PS003; not shown: N-terminal His6-tag from the pET28 format; C-terminal haemagglutinin (HA)-tag
B2: PS003 (VHH)
VHH: QVQLQESGGGLVQAGGSLRLSCAASGRTFSSYAMGWVRQAPGKEREFVAAISYNGGRTNYADSVKGRFTISRDNAKNTGYLQMNSLKPEDTAVYYCAANPRMWGSVDFRSWGQGTQVTVSS
notes: Llama VHH selected by phage display on rhPS; Purified form expressed from pET28 in E. coli with N-terminal His6-tag and C-terminal HA-tag; also called PS003 nanobody; monovalent PS003; not shown: N-terminal His6-tag from the pET28 format; C-terminal haemagglutinin (HA)-tag

How the values were obtained:
[1] = target: T1, recombinant human PS (rhPS); assay: cell-based or functional assay
[2] = target: T1, recombinant human PS (rhPS); assay: ratio of ELISA-derived KD values, reference PS003
Method: (§1) To further compare the ability of PS003 and PS003biv to bind to PS, the affinity of PS003 and PS003biv for rhPS was estimated as described (Beatty et al. J Immunol Methods 1987), by obtaining binding curves on rhPS immobilized at increasing concentrations (0.6, 1.25, 2.5 and 5 μg/mL in TBS containing 5 mM CaCl₂) in three individual experiments done in simplicate. For each nanobody, the dissociation constant (KD) was determined by using a formula based on the Law of Mass Action.

[3] = target: T2, recombinant murine PS (rmPS); assay: direct ELISA on immobilized rmPS (legend of FIG. 11)
Text: FIG. 11: Comparison of PS003biv and PS004biv binding to immobilized recombinant murine PS in direct ELISA. PS004biv is an in-house anti-human PS nanobody generated from a monovalent nanobody (PS004) identified after a selection on rhPS immobilized onto ELISA wells. PS004biv strongly binds to rhPS in direct ELISA but, in contrast to PS003biv, its epitope is localized within the N-terminal part of PS and not within the SHBG-like domain of PS (data not shown). The binding of PS003biv and PS004biv to immobilized rmPS was analyzed by ELISA.
As for rhPS, recombinant murine PS (rmPS) was expressed in HEK293 cells in the presence of 10 μg/mL vitamin K1, and purified by a two-step anion-exchange chromatography, as previously described (Fernandez et al. 2009). rmPS (60 μL at 10 μg/mL in TBS containing 5 mM CaCl₂) was immobilized onto 96-well NUNC Maxisorp plates, for 16 h at 4° C. Wells were washed with 3×200 μL of washing buffer (TBS containing 5 mM CaCl₂) and 0.1% Tween-20) and wells were blocked for 1 h at room temperature with TBS containing 5 mM CaCl₂ and 5% BSA. Wells were washed with 3×200 μL of washing buffer and increasing concentrations of PS003biv and PS004biv (0-50 nM in TBS containing 5 mM CaCl₂ and 1% BSA, 50 μL/well) were incubated for 1 h at room temperature. […]

[4] = target: T3, recombinant human Gas6 (rhGas6); assay: direct ELISA on immobilized rhGas6, anti-His6 detection
Method: FIG. 7: Epitope mapping of PS003biv and specificity of PS003biv for PS. Recombinant human PS (rhPS), a recombinant form of the PS SHBG-like region alone (rSHBG)), recombinant human Gas6 (rhGas6), or BSA (60 μL at 10 μg/mL in TBS containing 5 mM CaCl₂) were immobilized onto ELISA wells, and the binding of PS003biv (0.5 nM in TBS-0.1% Tween-5 mM CaCl₂)) was analyzed using a peroxidase-conjugated polyclonal anti-His6 tag antibody. The results are expressed as the percentage of the Abs_{450 nm} obtained on rhPS. Three individual experiments were done in simplicate.
Epitope mapping of PS003biv and specificity of PS003biv for PS rhPS, a recombinant form of the PS SHBG-like region alone (rSHBG) (Saposnik et al. 2003), recombinant human Gas6 (rhGas6), or BSA (60 μL at 10 μg/mL in 50 mM Tris, 150 mM NaCl, pH 7.4 (TBS) containing 5 mM CaCl₂) were immobilized onto 96-well NUNC Maxisorp plates, for 16 h at 4° C. Wells were washed with 3×200 μL of washing buffer (TBS containing 5 mM CaCl₂ and 0.1% Tween-20) and wells were blocked for 1 h at room temperature with TBS containing 5 mM CaCl₂ and 5% BSA. Wells were washed with 3×200 μL of washing buffer and 0.5 nM PS003biv (in TBS containing 5 mM CaCl₂, 0.1% Tween-20 and 2% BSA, 50 μL/well) were incubated for 1 h at room temperature. […] The results are expressed as the percentage of the Abs_{450 nm} obtained on rhPS. […]

[5] = target: T1, recombinant human PS (rhPS); assay: ELISA on rhPS immobilized at 0.6, 1.25, 2.5 and 5 µg/mL, method of Beatty et al. 1987
Method: as §1, with “FIG. 6: Comparison of PS003 and PS003biv binding to immobilized PS in direct ELISA. rhPS (60 μL at 2.5 μg/mL in TBS containing 5 mM CaCl₂)) was immobilized onto ELISA wells, and the binding of PS003 and PS003biv (0-200 nM) was analyzed with a peroxidase-conjugated polyclonal anti-His6 tag antibody. Three individual experiments were done in simplicate, and the results are expressed as percentage of maximal binding for each nanobody. […] To” for “To”, “obtaining similar” for “obtaining”
as §1, with “For each nanobody, the dissociation constant (KD) was determined by using a formula based on the Law of Mass Action.” left out

[6] = target: T3, recombinant human Gas6 (rhGas6); assay: direct ELISA on immobilized protein, anti-HA detection
Method: Vitamin K-dependent Gas6 is highly homologous to PS (47% overall homology) and, in contrast to other vitamin K-dependent proteins, also contains a SHBG-like domain. To further confirm the specificity of PS003 to PS, rhPS and rh Gas6 (60 μL, at 10 μg/mL in TBS containing 5 mM CaCl₂) were immobilized onto 96-well NUNC Maxisorp plates for 16 h at 4° C. Wells were washed with 3×200 μL of washing buffer (TBS containing 5 mM CaCl₂ and 0.1% Tween-20) and wells were blocked for 1 h at room temperature in TBS containing 5 mM CaCl₂ and 5% BSA. Wells were washed with 3×200 μL of washing buffer and increasing concentrations of PS003 (0-200 nM in TBS containing 5 mM CaCl₂ and 1% BSA, 50 μL/well) was incubated for 1 h at room temperature. Wells were washed with 3×200 μL of washing buffer, and a peroxidase-conjugated polyclonal anti-HA tag antibody (Abcam, 1 μg/mL in TBS containing 5 mM CaCl₂ and 1% BSA, 50 μL/well) was incubated for 1 h at room temperature. Wells were washed with 3×200 μL of washing buffer and 50 μL of TMB was added. Reactions were stopped by the addition of 50 μL of 2M H₂SO₄.

| Binder | clotting times in APTT-based APC-cofactor activity plasma clotting assay (STACLOT PS); 6 nM rhPS, 2 µM nanobody [1] [fold] | fold higher affinity than PS003 [2] [fold] | binding result [3] | binding result [4] | Kd [5] [nM] | binding result [6] |
| --- | --- | --- | --- | --- | --- | --- |
| B1 | 3.6 | 1.9 | binds | no binding (tested: 0.5 nM) | 13.8 | – |
| B2 | 2.8 | – | – | – | 26.8 | no binding (tested: 20 nM) |
